Key:
Test in all cases: Fibril incubation with CSF, quantitative MS/MS of bound proteins
Ab1 fibrils = test system: T1, Ab1 fibrils; format: binding, human; conditions: 4:1 w/w CSF protein:fibril
T1 construct: Synthetic amyloid β peptide 1–40 was purchased from Caslo Aps (Lyngby, Denmark); purchased Caslo Aps (Lyngby, Denmark); host or cells: synthetic peptide
Experimental: (§1) Plasma and CSF solutions were centrifuged (40,000 g, 20 min) to remove any aggregates. The protein concentration was determined using 280 nm absorbance assuming 1 Abs = 1 mg/mL. […] Control samples (without fibril material) were prepared similarly. All samples were incubated at room temperature for one hour under gentle agitation. Fibrils and fibril-bound proteins were pelleted by centrifugation at 17,000 g for 30 minutes. The supernatant (175 μL) was removed and the aggregate was re-suspended in 175 μL PBS and pelleted again before further preparation for gel analysis and spin-filter assisted digest for quantitative MS/MS.
(§2) The fibril-protein pellets were transferred to spin-filters (0.22 μm), washed twice in PBS (100 μL) and once in 1 M NaCl (100 μL). The fibrils and fibril-bound proteins were dissolved by one-hour incubation in 100 μL 6 M guanidinium chloride followed by elution from the spin-filter. The eluted proteins were loaded onto a 3 kDa MWCO filter unit for filter-assisted unfolding, reduction, alkylation, and trypsin digestion. In brief, samples were washed twice in 8 M urea, once in 8 M urea with 50 mM DTT, once in 8 M urea with 50 mM iodoaceteamide, and twice in 8 M Urea. The filter units were dried by centrifugation (14,000 g in 30 minutes) after every addition. Trypsin digestion was carried out with 0.25 μg sequencing grade trypsin from Sigma Aldrich in 50 mM ammonium bicarbonate overnight at 37 °C. The tryptic peptides were collected by centrifugation, acidified with TFA (0.1%) and micro-purified using POROS R2 column material (Applied Biosystems) packed in P200 pipette tips (Sarstedt).
(§3) LC-MS/MS analyses were performed on an EASY-nLC II system (Thermo Fisher Scientific) connected to a TripleTOF 5600+ mass spectrometer (Sciex) equipped with a NanoSpray III source (Sciex) and operated under Analyst TF 1.6.0 control.
(§4) The micro-purified tryptic peptides were dissolved in 0.1% formic acid, injected and trapped on an in-house packed trap column (2 cm × 100 μm I.D) with RP ReproSil-Pur C18-AQ 3 μm resin (Dr. Maisch GmbH). Peptides were eluted from the trap column and separated on a 15 cm analytical column (75 μm i.d.) packed in-house in a pulled emitter with RP ReproSil-Pur C18-AQ 3 μm resin (Dr. Maisch GmbH). Elution from the analytical column was performed with a linear gradient from 5% to 35% phase B (90% acetonitrile with 0.1% formic acid) over 20 min for protein identification and 50 min for quantitative analysis, respectively.
(§5) All samples were analysed three times, yielding nine MS/MS experiments for each fibril for both plasma and CSF. For the area-based extracted ion chromatogram (XIC) quantification, the acquisition method was set up as an information-dependent acquisition (IDA) experiment collecting up to 25 MS/MS spectra in each 1.6 sec cycle using an exclusion window of 6 sec.
(§6) XIC quantification was based on the average ion intensity of the three most abundant peptides for each protein. Only proteins quantified in at least four out of nine MS/MS experiments per fibril were included in the quantification. The total ion scores were visualized after grouping the proteins according to function (Figure S11).
(§7) For each MS/MS experiment, the ion intensities of the individual proteins were normalized to the total ion intensity of that MS/MS experiment to achieve a relative protein composition. The contribution of each protein was averaged over all nine MS/MS experiments (Tables 1 and 2).

Ab2 fibrils = test system: T2, Ab2 fibrils; format: binding, human; conditions: 4:1 w/w CSF protein:fibril
T2 construct: Two structurally distinct fibrils of the Aβ(1–40) peptide associated with AD
Experimental: as §1, §2, §3, §4, §5, §6, §7

glucagon fibrils = biological target: T3, glucagon fibrils (Homo sapiens, UniProt P01275); format: binding; conditions: 4:1 w/w CSF protein:fibril
T3 construct: fibrils of the peptide hormone glucagon
T3 sequence (P01275 53-81 limits assumed): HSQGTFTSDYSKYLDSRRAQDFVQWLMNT
Experimental: as §1, §2, §3, §4, §5, §6, §7

C-36 fibrils = biological target: T4, C-36 fibrils (Homo sapiens, UniProt P01009); format: binding; set-up: key to Identification status of CSF protein bound: C-36: *: Identified, but not quantified; —: Not identified in any of the samples; conditions: for Relative composition of CSF proteins bound: C-36: 4:1 w/w CSF protein:fibril
T4 construct: the 36 residue C-terminal fragment of α1-antitrypsin (C-36)
T4 sequence (P01009 383-418 limits assumed): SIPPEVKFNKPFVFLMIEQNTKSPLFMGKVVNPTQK
Experimental: as §1, §2, §3, §4, §5, §6, §7

αSN fibrils = αSN fibrils (Homo sapiens, UniProt P37840); format: binding; set-up: key to Identification status of CSF protein bound: αSN: *: Identified, but not quantified; —: Not identified in any of the samples; conditions: for Identification status of CSF protein bound: αSN: symbol cells
Experimental: as §1, §2, §3, §4, §5, §6, §7

FAS4-AD aggregates = test system: T5, FAS4-AD aggregates; format: binding, human; set-up: key to Identification status of CSF protein bound: FAS4-AD: *: Identified, but not quantified; —: Not identified in any of the samples; conditions: symbol cells
T5 construct: aggregates of a mutated version of the FAS1-4 domain of TGFBIp
Experimental: as §1, §2, §3, §4, §5, §6, §7

Molecule	Relative composition of CSF proteins bound: Ab1 (Ab1 fibrils)	Relative composition of CSF proteins bound: Ab2 (Ab2 fibrils)	Relative composition of CSF proteins bound: Glucagon (glucagon fibrils)	Identification status of CSF protein bound: C-36 (C-36 fibrils; symbol cells)	Identification status of CSF protein bound: αSN (αSN fibrils)	Identification status of CSF protein bound: FAS4-AD (FAS4-AD aggregates)	Relative composition of CSF proteins bound: C-36 (C-36 fibrils)	Relative composition of CSF proteins bound: αSN (αSN fibrils; 4:1 w/w CSF protein:fibril)
Cystatin-C: CSF protein bound to fibrils (protein, UniProt P01034 27-146, looked up) Cystatin-C: SSPGKPPRLVGGPMDASVEEEGVRRALDFAVGEYNKASNDMYHSRALQVVRARKQIVAGVNYFLDVELGRTTCTKTQPNLDNCPFHDQPHLKRKAFCSFQIYAVPWQGTMTLSKSTCQDA	3.9 ± 0.4 % of total protein	6.0 ± 0.6 % of total protein	0.9 ± 0.0 % of total protein	*	*	*		
α2-HS-glycoprotein: CSF protein bound to fibrils (protein, UniProt P02765 19-300; P02765 341-367, looked up) Alpha-2-HS-glycoprotein chain … 1: APHGPGLIYRQPNCDDPETEEAALVAIDYINQNLPWGYKHTLNQIDEVKVWPQQPSGELFEIEIDTLETTCHVLDPTPVARCSVRQLKEHAVEGDCDFQLLKLDGKFSVVYAKCDSSPDSAEDVRKVCQDCPLLAPLNDTRVVHAAKAALAAFNAQNNGSNFQLEEISRAQLVPLPPSTYVEFTVSGTDCVAKEATEAAKCNLLAEKQYGFCKATLSEKLGGAEVAVTCMVFQTQPVSSQPQPEGANEAVPTPVVDPDAPPSPPLGAPGLPPAGSPPDSHVL Alpha-2-HS-glycoprotein chain … 2: TVVQPSVGAAAGPVVPPCPGRIRHFKV	1.1 ± 0.0 % of total protein	1.9 ± 0.6 % of total protein	0.7 ± 0.2 % of total protein		*	—	3.6 ± 0.7 % of total protein	
Calsyntenin-1: CSF protein bound to fibrils (protein, UniProt O94985 29-981, looked up) Calsyntenin-1: ARVNKHKPWLEPTYHGIVTENDNTVLLDPPLIALDKDAPLRFAESFEVTVTKEGEICGFKIHGQNVPFDAVVVDKSTGEGVIRSKEKLDCELQKDYSFTIQAYDCGKGPDGTNVKKSHKATVHIQVNDVNEYAPVFKEKSYKATVIEGKQYDSILRVEAVDADCSPQFSQICSYEIITPDVPFTVDKDGYIKNTEKLNYGKEHQYKLTVTAYDCGKKRATEDVLVKISIKPTCTPGWQGWNNRIEYEPGTGALAVFPNIHLETCDEPVASVQATVELETSHIGKGCDRDTYSEKSLHRLCGAAAGTAELLPSPSGSLNWTMGLPTDNGHDSDQVFEFNGTQAVRIPDGVVSVSPKEPFTISVWMRHGPFGRKKETILCSSDKTDMNRHHYSLYVHGCRLIFLFRQDPSEEKKYRPAEFHWKLNQVCDEEWHHYVLNVEFPSVTLYVDGTSHEPFSVTEDYPLHPSKIETQLVVGACWQEFSGVENDNETEPVTVASAGGDLHMTQFFRGNLAGLTLRSGKLADKKVIDCLYTCKEGLDLQVLEDSGRGVQIQAHPSQLVLTLEGEDLGELDKAMQHISYLNSRQFPTPGIRRLKITSTIKCFNEATCISVPPVDGYVMVLQPEEPKISLSGVHHFARAASEFESSEGVFLFPELRIISTITREVEPEGDGAEDPTVQESLVSEEIVHDLDTCEVTVEGEELNHEQESLEVDMARLQQKGIEVSSSELGMTFTGVDTMASYEEVLHLLRYRNWHARSLLDRKFKLICSELNGRYISNEFKVEVNVIHTANPMEHANHMAAQPQFVHPEHRSFVDLSGHNLANPHPFAVVPSTATVVIVVCVSFLVFMIILGVFRIRAAHRRTMRDQDTGKENEMDWDDSALTITVNPMETYEDQHSSEEEEEEEEEEESEDGEEEDDITSAESESSEEEEGEQGDPQNATRQQQLEWDDSTLSY		1.8 ± 0.8 % of total protein	0.4 ± 0.2 % of total protein			—	1.2 ± 0.1 % of total protein	3.1 ± 0.4 % of total protein
Amyloid-like protein 1: CSF protein bound to fibrils (protein, UniProt P51693 39-650, looked up) Amyloid beta precursor like …: SLAGGSPGAAEAPGSAQVAGLCGRLTLHRDLRTGRWEPDPQRSRRCLRDPQRVLEYCRQMYPELQIARVEQATQAIPMERWCGGSRSGSCAHPHHQVVPFRCLPGEFVSEALLVPEGCRFLHQERMDQCESSTRRHQEAQEACSSQGLILHGSGMLLPCGSDRFRGVEYVCCPPPGTPDPSGTAVGDPSTRSWPPGSRVEGAEDEEEEESFPQPVDDYFVEPPQAEEEEETVPPPSSHTLAVVGKVTPTPRPTDGVDIYFGMPGEISEHEGFLRAKMDLEERRMRQINEVMREWAMADNQSKNLPKADRQALNEHFQSILQTLEEQVSGERQRLVETHATRVIALINDQRRAALEGFLAALQADPPQAERVLLALRRYLRAEQKEQRHTLRHYQHVAAVDPEKAQQMRFQVHTHLQVIEERVNQSLGLLDQNPHLAQELRPQIQELLHSEHLGPSELEAPAPGGSSEDKGGLQPPDSKDDTPMTLPKGSTEQDAASPEKEKMNPLEQYERKVNASVPRGFPFHSSEIQRDELAPAGTGVSREAVSGLLIMGAGGGSLIVLSMLLLRRKKPYGAISHGVVEVDPMLTLEEQQLRELQRHGYENPTYRFLEERP	2.8 ± 0.2 % of total protein	3.4 ± 0.7 % of total protein	0.6 ± 0.0 % of total protein		*	—	2.0 ± 0.1 % of total protein	
Fibulin-1: CSF protein bound to fibrils (protein, UniProt P23142 30-703, looked up) Fibulin-1: DVLLEACCADGHRMATHQKDCSLPYATESKECRMVQEQCCHSQLEELHCATGISLANEQDRCATPHGDNASLEATFVKRCCHCCLLGRAAQAQGQSCEYSLMVGYQCGQVFQACCVKSQETGDLDVGGLQETDKIIEVEEEQEDPYLNDRCRGGGPCKQQCRDTGDEVVCSCFVGYQLLSDGVSCEDVNECITGSHSCRLGESCINTVGSFRCQRDSSCGTGYELTEDNSCKDIDECESGIHNCLPDFICQNTLGSFRCRPKLQCKSGFIQDALGNCIDINECLSISAPCPIGHTCINTEGSYTCQKNVPNCGRGYHLNEEGTRCVDVDECAPPAEPCGKGHRCVNSPGSFRCECKTGYYFDGISRMCVDVNECQRYPGRLCGHKCENTLGSYLCSCSVGFRLSVDGRSCEDINECSSSPCSQECANVYGSYQCYCRRGYQLSDVDGVTCEDIDECALPTGGHICSYRCINIPGSFQCSCPSSGYRLAPNGRNCQDIDECVTGIHNCSINETCFNIQGGFRCLAFECPENYRRSAATLQQEKTDTVRCIKSCRPNDVTCVFDPVHTISHTVISLPTFREFTRPEEIIFLRAITPPHPASQANIIFDITEGNLRDSFDIIKRYMDGMTVGVVRQVRPIVGPFHAVLKLEMNYVVGGVVSHRNVVNVHIFVSEYWF	1.4 ± 0.1 % of total protein	1.3 ± 0.1 % of total protein	0.3 ± 0.0 % of total protein		—	—	1.2 ± 0.2 % of total protein	
